Assay results published in article PMC12090739.

Columns and labels:
[1] = biological target: PDGFRα-V242K (UniProt P16234)
[2] = biological target: HCMV gH/gL/gO complex (strain TR; gO allele gO1b) (human cytomegalovirus (HCMV) strain TR)
[3] = biological target: PDGFRα-V242K (UniProt P16234); remark: listed apart in the source

## HCMV gH/gL/gO complex with gO allele gO1c
[1]
  rate of gH/gL/gO-PDGFRα-dependent cell–cell fusion, as percent of parental gO1b (% of parental gO1b): 107

## soluble PDGFRα-FC (from UniProt P16234 24-528) (Fc fusion)
[2]
  inhibition of the rate of gH/gL/gO-PDGFRα-dependent cell–cell fusion (pair that is blocked: m1 and m2): 2.5 fold

## HCMV gH/gL/gO complex with gO allele gO2a
[1]
  rate of gH/gL/gO-PDGFRα-dependent cell–cell fusion, as percent of parental gO1b (% of parental gO1b): 112

## HCMV gH/gL/gO complex (strain TR; gO allele gO1b)
[3]
  rate of gB-mediated cell–cell fusion (split luciferase, live cells); ARPE19 target cells with PDGFRα against those without: > 100 fold

## HCMV gH/gL/gO complex with gO allele gO1a
[1]
  rate of gH/gL/gO-PDGFRα-dependent cell–cell fusion, as percent of parental gO1b (% of parental gO1b): 83
